# Reference: the DeepSol protein solubility set
# Assay: soluble on expression in E. coli; label from the status in PepcDB or PDB records
row,Sequence,soluble on expression in E. coli
1,MRGSHHHHHHGSLVPRGSMVAADAPAAGTDITNQLTNVTVGIDSGTTVYPHQAGYVKLNYGFSVPNSAVKGDTFKITVPKELNLNGVTSTAKVPPIMAGDQVLANGVIDSDGNVIYTFTDYVNTKDDVKATLTMPAYIDPENVKKTGNVTLATGIGSTTANKTVLVDYEKYGKFYNLSIKGTIDQIDKTNNTYRQTIYVNPSGDNVIAPVLTGNLKPNTDSNALIDQQNTSIKVYKVDNAADLSESYFVNPENFEDVTNSVNITFPNPNQYKVEFNTPDDQITTPYIVVVNGHIDPNSKGDLALRSTLYGYNSNIIWRSMSWDNEVAFNNGSGSGDGIDKPVVPEQPDEPGEIEPIPEK,soluble
2,MAHHHHHHMSSSEKKHAAWVDVVAGGFGGALAKSLLSPFQRIVVLQQLGQHKSYSIAQLVHHIYAQEGLKSFWRGNLTSMVIRVPYSGIQFLLYTQLKFLFQDWLDRRHAAAALPTHQADGSSDNS,soluble
3,SQLTHINAAGEAHMVDVSAKAETVREARAEAFVTMRSETLAMIIDGRHHKGDVFATARIAGIQAAKRTWDLIPLCHPLMLSKVEVNLQAEPEHNRVRIETLCRLTGKTGVEMEALTAASVAALTIYDMCKAVQKDMVIGPVRLLAKSGGKSGDFKVEADD,not soluble
4,MQDEKNFMSGVKENLDVLFTKLEKFLRTETVIGQPIKVGETTLIPIVTVMFGCGTGGGVGDNKGIKGQGGGLGTGARISPDAVLVIKNDDVQMLPVKKGANLSKLIEMVPEIVSKIKIDKENKEKEEVKKEENLEHHHHHH,soluble
5,MSSSDHIHVPDGLAESYSRSGGEEGRAWIAGLPALVARCVDRWELKRDGGVRSGEASLVVPVLRADGTRAALKLQMPREETTAALIGLRAWGGDGMVRLLDHDEESSTMLLERLDGSRTLASVEDDDEAMGVLAGLLNRLHSVPAPPGLRGLGEIAGAMVEEVPSAVDSLADPEDRSRLRGWASAVAELVGEPGDRVLHWDLHYENVLAAEREPWLAIDPEPLVGDPGFDLWPALDTGWERIEATGDARRVVRRRFDLLTEALELDRGRAAGWTLARLLQNTLWDIEDGLTAIAPSQIAVAEALAKP,not soluble
6,MNELTKQMQQIMHPRAVLVAYECETTGYSTPRSYLELRPVNEKGRMGAGIPVTYEFMNSLVESYTESMSGIPHGRIPGNMLLCDSRKGRERYIWYNPPQKRKMYFQDGLHITDGTFNVPGVIYVVERECMDIHAFKGAIPEERTELYLAPFFNVAGANVCLGSSSPKKPQDMDFLEFQEYWEKRFWMSEFSHLGGNRNPTRSNLVSVTEHARNNPFDYSELQQSGKKLKDILA,not soluble
7,MANPELLEEQREETRLIIEELLEDGSDPDALYTIEHHLSADDFETLEKAAVEAFKLGYEVTEPEELEVEEGDTVICCDILSECALNAELIDAQVEQLMNLAEKYDVEYDGWGTYFEDPNGEEGDDDDYVDEDDDGVRH,not soluble
8,MASSVDEEALHQLYLWVDNIPLSRPKRNLSRDFSDGVLVAEVIKFYFPKMVEMHNYVPANSLQQKLSNWGHLNRKVLKRLNFSVPDDVMRKIAQCAPGVVELVLIPLRQRLEERQRRRKQGAGSLQELAPQDGSGYMDVGKVAFSISPSRLELSFCPSSCHL,not soluble
9,MGSDKIHHHHHHMYMIKQNFTTKVYPLKQFEGEYSEVAYAGDSQADDVIVFIHGALLTYKIMTMFEPYFRDYKLIFINCPSRGRSSDLDRDTHTLDDYAARIYDVLTQIVKEQQIKELSIVGYSMGGMIATRLLKYNTLPVSHLIYLHSAAKITPDASMLARLFTSESKRAVLKDEIKAVKNLPQYILDKTIYAQKENALDLVQFIAPIKTIITDMIYTINTDYLPDIDEIKQFPKILFMSGKEDQIIPYTDSQATLEKFKALGGETKEVIYPGIGHIDFPSVLETQSDGQTGVVDEIKAWISKK,not soluble
10,AAKGTAETKQEKSFVDWLLGKITKEDQFYETDPILRGGDVKSSGSTSGKKGGTTSGKKGTVSIPSKKKNGNGGVFGGLFAKKD,soluble
11,MSLIPKFREFDRERHRTDYQKGMSYAEQQDFDMGFTIWFDHIEDLDLIEKDGTINRIVMMSTGLKDKNVKEIYESDIVRNLYGELYVVEWLDGSFVLTEFYNGGYDHYIIDSSTEYEVLGNIYENPELLEDDNHASNEGHHHHHH,soluble
12,MVYFEEVRRHIRIDAAHVYGGLLATLTALYEYHQIPYEGIPVGTIKKKMTGKGNASKEEIIKVVCAKGHASCDDNEADALATLHVMKGKEIRHVN,not soluble
13,MAHHHHHHMHSAALRRREEAAKSLAELEPEYAQIVADLPALEARKAAAEKEQEALWAELGMKQDESEAGLYESEFSDEATSCIRWCETGGCIGTGPRESHRDKSCSNVIDRDSSGYCECKTNDKKDEPEDDEEDVEPEAEGEGTEVRRGTVTYRFSSGHPRFTCMYVCDHSGEAGVDQQPEKLESFTILGELREASKSLERKKNRLEEVKGAMEAAKKLLSSPTITTEDLLRTLEKEEFTIDFQEYTYAIVMFDTVYQRDMGMTTGGNLLGLWKSFAENTYSVWAKDAHDLTQMIYDNGLKCWNGVVRNVEVHLVCGPENKLMTVEEPSMCNYRMVFETPAMCDD,soluble
14,MTLDEEYLDITFLTENGFVRKRCPKCGKHFWTADPEREICGDPPCESYSFIGNPVFKKPFELDEMREYYLNFFERRGHGRIERYPVVARWRTDIYLTIASIADFQPFVTSGVAPPPANPLTISQPCIRLDDLDSVGRTGRHLTLFEMMAHHAFNYPGKEIYWKNETVAYCTELLNELGVKKEDIVYKEEPWAGGGNAGPCLEAIVGGLEVATLVFMNLEEHPEGDIEIKGARYRKMDNYIVDTGYGLERFVWASKGTPTVYDAIFPEVVDTIIDNSNVSFNREDERVRRIVAESSKLAGIMGELRGERLNQLRKSVADTVGVSVEELEGIVVPLEKVYSLADHTRCILFMLGDGLVPSNAGAGYLARLMIRRSLRLAEELELGLDLYDLVEMHKKILGFEFDVPLSTVQEILELEKERYRTTVSKGTRLVERLVERKKKLEKDDLIELYDSHGIPVELAVGIAAEKGAEVEMPKDIYAELAKRHSKAEKVQEKKITLQNEYPATEKLYYDDPTLLEFEAEVIGVEGDFVILNRSAFYPESGGQDNDVGYLIANGGKFEVVDVLEADGVVLHVVKGAKPEVGTKVKGVIDSDVRWRHMRHHSATHVLLYSLQKVLGNHVWQAGARKEFSKARLDVTHFRRPSEEEIKEIEMLANREILANKPIKWEWMDRIEAERKFGFRLYQGGVPPGRKIRVVQVGDDVQACGGTHCRSTGEIGMLKILKVESIQDGVIRFEFAAGEA,soluble
15,MSLEQSDRDRPLADRMRPRTLDEFAGQEHILAPGKPLRVQIDRDDIGSLIFWGPPGVGKTTLAKIIAAMTHADFIEFSAVLSGIKEIKQVMADAERVRQYGTRTILFVDEIHRFNRAQQDAFLPHVERGNIKLIGATTENPSFEVNSALLSRSRVYTLTPLTEEQIVGLLRRALTDTERGLAELHVTAEDIALARIAAYASGDARSGYNVLEVAAQAAGATSERIITEQIVADALQRRVLRYDKSGEEHYNLISALHKSVRNSDPDAALYWLARMIESGEDALYIARRVVRMAVEDIGLADPNALALTLAAKDAIDFLGMPEANLALAQAVVYLSIAPKSNALYTAYGDVQADVEKTAADPVPLHLRNAPTKLMKEIGYGSGYQYAHDLEAKVADMQCLPDNLKDRVYYHPTDQGIEQRIRTRLEEIRREGHHHHHH,soluble
16,ADPEKSYAEGPGLDGGECFQPSKFKIHAVDPDGVHRTDGGDGFVVTIEGPAPVDPVMVDNGDGTYDVEFEPKEAGDYVINLTLDGDNVNGFPKTVTVKPA,soluble
17,SLREHLMSIEVANESGIDVSEAELVSVARFVIAKMDVNPCAELSMLLLDTAAMADLHMRWMDLPGPTDVMSFPMDELEPGGRPDAPEPGPSMLGDIVLCPEFAAEQAAAAGHSLGHELALLTIHGVLHLLGYDHAEPDEEKEMFALQDRLLEEWVADQVEAYQHDRQDEKDRRLLDKSRYFDL,not soluble
18,MMKIVPPKPFFFEAGERAVLLLHGFTGNSADVRMLGRFLESKGYTCHAPIYKGHGVPPEELVHTGPDDWWQDVMNGYEFLKNKGYEKIAVAGLSLGGVFSLKLGYTVPIEGIVTMCAPMYIKSEETMYEGVLEYAREYKKREGKSEEQIEQEMEKFKQTPMKTLKALQELIADVRDHLDLIYAPTFVVQARHDEMINPDSANIIYNEIESPVKQIKWYEQSGHVITLDQEKDQLHEDIYAFLESLDW,soluble
19,MKKLFALLFISMISGMIMAQIPEVSGTIVFKKDGQPVVGALVSVLGTDISTITDVDGRFTLKEIPEKAQRIRVKYIGMQPKDVKIRPIMNVTLDLEKKLAFFIQAGVGVSGYNLENNNEDIYGGNNHLYIQGGVGLNYNFSTYFSLQPSVNVVAKGCKNMGRRGSDGQGEITVDPVYLEIPVLIAARFIISDFGRLIFNAGPYAAIGIAGKGKYTDEWEGTSMKFDLFSGDEAVLKRFDAGVQAGFAYEIKHIGFSYTFGYGLLKPFKEWNKEWGATPHNISHNFGLKYIF,not soluble
20,MSNRKYFGTDGIRGRVGDAPITPDFVLKLGWAAGKVLARHGSRKIIIGKDTRISGYMLESALEAGLAAAGLSALFTGPMPTPAVAYLTRTFRAEAGIVISASHNPFYDNGIKFFSIDGTKLPDAVEEAIEAEMEKEISCVDSAELGKASRIVDAAGRYIEFCKATFPNELSLSELKIVVDCANGATYHIAPNVLRELGANVIAIGCEPNGVNINAEVGATDVRALQARVLAEKADLGIAFDGDGDRVIMVDHEGNKVDGDQIMYIIAREGLRQGQLRGGAVGTLMSNMGLELALKQLGIPFARAKVGDRYVLEKMQEKGWRIGAENSGHVILLDKTTTGDGIVAGLQVLAAMARNHMSLHDLCSGMKMFPQILVNVRYTAGSGDPLEHESVKAVTAEVEAALGNRGRVLLRKSGTEPLIRVMVEGEDEAQVTEFAHRIADAVKAV,not soluble
21,LDNEMLTLDIVASDLLTLQALNAARLKEAGAVDATFVTKAINEQPLNLGQGIWLSDSAEGNLRSAIAVSRAANAFDVDGETAAMLVSVAMNDDQPIAVLKRLADLLLDNKADRLLKADAATLLALLTSDDAPTDDV,not soluble
22,MSLKTERILLPVDGSESSYRAAYCAAQAAQLCGAEVLLLHCVDQTEQNGEAPLVDTTLAEDTTTNRHPKQADALGMATANDLIGPVRDILEDHGIRYMERIVEGEPATCIPRVAQNTRCGLIVMGRSGKTPSGRLPVGSVTGRVVGAAHCPVIVAEGHHHHHH,soluble
23,MSSTAGGEVSINSGDLLLGTLSTSITKLEQQIRATQLSQKKLNSDCETMAEYLRDLSEYKQPVDLLPYVGKLNDSTIRVNNTHQKLDDLLERLTKLQRQIARETYKKKNSIKEQEPPVQPEN,not soluble
24,SSPGKPPRLVGGPMDASVEEEGVRRALDFAVGEYNKASNDMYHSRACQVVRARKQIVAGVNYFLDVELCRTTCTKTQPNLDNCPFHDQPHLKRKAFCSFQIYAVPWQGTMTLSKSTCQDA,soluble
25,MKLIKNGKVLQNGELQQADILIDGKVIKQIAPAIEPSNGVDIIDAKGHFVSPGFVDVHVHLREPGGEYKETIETGTKAAARGGFTTVCPMPNTRPVPDSVEHFEALQKLIDDNAQVRVLPYASITTRQLGKELVDFPALVKEGAFAFTDDGVGVQTASMMYEGMIEAAKVNKAIVAHCEDNSLIYGGAMHEGKRSKELGIPGIPNICESVQIARDVLLAEAAGCHYHVCHVSTKESVRVIRDAKRAGIHVTAEVTPHHLLLTEDDIPGNNAIYKMNPPLRSTEDREALLEGLLDGTIDCIATDHAPHARDEKAQPMEKAPFGIVGSETAFPLLYTHFVKNGDWTLQQLVDYLTIKPCETFNLEYGTLKENGYADLTIIDLDSEQEIKGEDFLSKADNTPFIGYKVYGNPILTMVEGEVKFEGDK,not soluble
